From article PMC6917434 (Journal of thrombosis and haemostasis : JTH, 2019)
Where two headings read alike, the source gives them in different places. One block for each molecule: values may come before it.

Assays:
Experiment in all cases: single-molecule atomic force microscopy
[1] = molecular target: Factor XIII A subunit of plasma-purified inactive factor XIII (pFXIII-A2B2) (human) (UniProt P00488)
[2] = molecular target: the molecule itself
[3] = molecular target: the molecule itself; remark: listed apart in the source
[4] = molecular target: T1, recombinant inactive factor XIII A subunit from ZymoGenetics (rFXIII-A2) (human), P00488; details: remark: other sources report otherwise
T1 chain: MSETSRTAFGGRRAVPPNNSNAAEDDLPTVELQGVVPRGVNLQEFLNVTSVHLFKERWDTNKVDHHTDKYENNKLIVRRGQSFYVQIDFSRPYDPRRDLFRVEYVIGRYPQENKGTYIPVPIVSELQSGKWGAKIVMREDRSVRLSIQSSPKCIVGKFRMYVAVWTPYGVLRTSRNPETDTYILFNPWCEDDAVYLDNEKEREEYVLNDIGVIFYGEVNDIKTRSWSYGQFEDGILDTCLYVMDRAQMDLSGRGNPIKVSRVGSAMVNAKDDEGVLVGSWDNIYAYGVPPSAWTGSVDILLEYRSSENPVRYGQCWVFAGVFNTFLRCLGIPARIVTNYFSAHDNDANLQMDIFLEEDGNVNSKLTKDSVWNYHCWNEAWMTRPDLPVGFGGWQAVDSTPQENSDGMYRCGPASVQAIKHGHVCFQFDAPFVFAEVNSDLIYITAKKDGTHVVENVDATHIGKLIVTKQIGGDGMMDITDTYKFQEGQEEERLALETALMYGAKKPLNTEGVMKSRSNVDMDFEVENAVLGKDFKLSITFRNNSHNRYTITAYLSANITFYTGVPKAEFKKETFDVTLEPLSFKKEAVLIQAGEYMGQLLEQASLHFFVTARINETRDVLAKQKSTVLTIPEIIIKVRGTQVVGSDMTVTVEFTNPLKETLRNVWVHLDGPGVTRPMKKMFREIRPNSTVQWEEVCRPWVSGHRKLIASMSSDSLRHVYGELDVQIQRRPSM

[5] = molecular target: T1, recombinant inactive factor XIII A …; details: remark: other sources report otherwise

- stoichiometry N [1]: 2
Molecule: Factor XIII A subunit of plasma-purified inactive factor XIII (pFXIII-A2B2) (from UniProt P00488 39-732) (enzyme)

B1: recombinant factor XIII B subunit from Zedira (rFXIII-B2) (natural protein, human, UniProt P05160 21-661, looked up)
chain: EEKPCGFPHVENGRIAQYYYTFKSFYFPMSIDKKLSFFCLAGYTTESGRQEEQTTCTTEGWSPEPRCFKKCTKPDLSNGYISDVKLLYKIQENMRYGCASGYKTTGGKDEEVVQCLSDGWSSQPTCRKEHETCLAPELYNGNYSTTQKTFKVKDKVQYECATGYYTAGGKKTEEVECLTYGWSLTPKCTKLKCSSLRLIENGYFHPVKQTYEEGDVVQFFCHENYYLSGSDLIQCYNFGWYPESPVCEGRRNRCPPPPLPINSKIQTHSTTYRHGEIVHIECELNFEIHGSAEIRCEDGKWTEPPKCIEGQEKVACEEPPFIENGAANLHSKIYYNGDKVTYACKSGYLLHGSNEITCNRGKWTLPPECVENNENCKHPPVVMNGAVADGILASYATGSSVEYRCNEYYLLRGSKISRCEQGKWSSPPVCLEPCTVNVDYMNRNNIEMKWKYEGKVLHGDLIDFVCKQGYDLSPLTPLSELSVQCNRGEVKYPLCTRKESKGMCTSPPLIKHGVIISSTVDTYENGSSVEYRCFDHHFLEGSREAYCLDGMWTTPPLCLEPCTLSFTEMEKNNLLLKWDFDNRPHILHGEYIEFICRGDTYPAELYITGSILRMQCDRGQLKYPRCIPRQSTLSYQEPLRT
modifications: glycosylation pattern different from the plasma-purified B subunit (sites not given)
- stoichiometry N [2]: 2

B2: Factor XIII B subunit of plasma-purified factor XIII (natural protein, human, UniProt P05160 21-661, looked up)
chain: B1 chain
modifications: glycoprotein (sites not given)
- stoichiometry N [3]: 2

- stoichiometry N [4]: 2
- stoichiometry N [5]: 2
B3: recombinant inactive factor XIII A subunit from ZymoGenetics (rFXIII-A2), P00488 1-732 (enzyme)
chain: T1 chain
